The DeepSol protein solubility set

Experiment: soluble on expression in E. coli; label from the status in PepcDB or PDB records

Sequence	soluble on expression in E. coli
MSLTGRAFAIPLRTRFRGITVREGMLVRGAAGWGEFSPFAEYGPRECARWWAACYEAAELGWPAPVRDTVPVNATVPAVGPEEAARIVASSGCTTAKVKVAERGQSEANDVARVEAVRDALGPRGRVRIDVNGAWDVDTAVRMIRLLDRFELEYVEQPCATVDELAEVRRRVSVPIAADESIRRAEDPLRVRDAEAADVVVLKVQPLGGVRAALRLAEECGLPVVVSSAVETSVGLAAGVALAAALPELPYACGLATLRLLHADVCDDPLLPVHGVLPVRRVDVSEQRLAEVEIDPAAWQARLAAARAAWEQVEREPGPEGHHHHHH	soluble
MSLTGTSAIENVDSGNEESMIYQQVGDQTKVLTENDKYLVKCINSFNAEQLPIPSHVPFYSTIDGVNKQCSYNDNENLYVWNFINSKWDDSNYCKIPLNTDSSSSVNALPKSVFILPTNYDTDAEMLGLENSNSSNGIVGGVILVENTADATYLVYYEDMRSINHLSTSISKNMAHLLDLKLHSEEKVTLMLNSEPAGLVLATTEGRLMFITIRETNGKPCLTLKQQLIRPKGSGPLAFLSLFSSSNEIISLRNGPIIGKGERIVYVLTRNGRFQVWKLSVASKCVKMMDTNFYDSILDDLVELYPFAQGSLKILDTHPITNQPFSPQVVLTQISSSDETNFILSTIILDEQTNSFTIFSTYRLNTYIMKGNSALAKPKLCVPSSLQSATSKYFDLFIVFDKAVVITQTSSKLDSTYTLKRKWEDIISFNKEIQILAESNDASTVYLLTKGMGIISIIPKKERGETAYEESFVKSHLDQAIYFSSSSSNPVEFNLPGGLHLEQDEVENDLKTASEEILLSSSKYIPPLTDNIEKHLSLRLVYFRNLISFVKDNFAFSISPSKKLDIIENFELLNCFHKFNNFISSSNFELKSFWDRTLEANGNINEIELAVEKIHRFPDLFSTYLNTIIKELPSKSYTFKLTLADLIIETIYDAILEEGEKKLRYEFLSLDPLELNTHLPWFISIDILDSINQLFFDLKFSLEGQEKNANTQLLVIVKTLYYLFNQVRLFFLKENNMNDVSAQDFMKKCDQLYENNHLAWNQTLCELGLNEDSLEISEFYHDFVSLVETLDTLEAVESKALYEEYFARFGEQFAHTLFEYYVKKSKLQDLFYRFPEQQEFLVSFFKKYPQYGRVSWIFSIINYDYASAAATLYDITSGDRASAMTLESAQLYLNIAKLSTLAAHENHANVNLLGALKRIQANLDVVDGGKDLVEKLKRVDGAPSHLQANYKGTEFEKLFDLLVKKVTNGTMLQFVEVVILYSLIDDKECLYHALKLLAIDGDILELELKKFLISLIWRRSILFDIQNAYDTTSEDSTLHFVLKQYLEDELFRANCPLPTVGVLTEKTMFTESLLSSLFSNYELDTKKLQDILEKEYNTVESTAVDIEKRIIETISSLDKANDNSYTVNYHDLTIEYQNEGHHHHHH	soluble
MSLTHLFYLTRGAPLSLKENYYPWLKAGSFFPDALYSCAPSNKDWSDFAEFTHWPNFLMIAVSYWQQKYGQNDRLRGTHGSLALKSFLIGVFTHQIVDVSWHSLVTDYRMHGLLRVLSETEFDGDIETAHTFLDVMGEFLTLNNVIRDSNNNENWDFLTRSDWKLPREEDLMEIIRNAGLSKEKLSYAELEFCVKRGMAAAISEGYLFRSQRNQLLTNIYSTSPRANDLILNHWLGGQSNLVAMLQRCVPFFETLFHDENTNEAQAEELRLCANLPPVSQKRINARPLVSSLKARKGNSHIVVSPMKSFSDFGTSLTMGKFREDNKDYLAVSAPLEDTVGAIYIVPWDILTVARKEDFSILQPITAMYGSKVGTYKASDVDYLLVSQPGTCTIDFYFKGVKILTIKDETTEEAHQLQFAVTGNFYDDKIPDLVVSSPSYGANETGIATFIPGSSIISYLTNSDKYQVVDISTFKGVINLDGYPMKIPFQHFGATIQISDTTDKQKLIYITCQSLGTVFVYSSNDLHDLSIPIYYITKNGVIPAKDSDHVEWHIIPSKEHGMFGAAIYSWNFEGMSFVAVSQPMFDTVFIYIEKSGQIEFFLKLVLKIKTKSDSIPDEFGSSLLFNDEEKKLYVSSPGSFDARGSIWKISMDELLKAGNDPKRKTLLINNLRHLMLINPDKSSKGVSNFGNSMILGPQNHLIVGIPQYGYGNFDHMQLTGRILVLEGHHHHHH	not soluble
MSLTHVIWDMGETLNTVPNTRYDHHPLDTYPEVVLRKNAKETLEKVKQLGFKQAILSNTATSDTEVIKRVLTNFGIIDYFDFIYASNSELQPGKMEKPDKTIFDFTLNALQIDKTEAVMVGNTFESDIIGANRAGIHAIWLQNPEVCLQDERLPLVAPPFVIPVWDLADVPEALLLLKKISEGHHHHHH	soluble
MSLTIYGVYRSRATRTLWLAAELGIEFKHVPVIQARRLADPLATDAPLNTLSPAFLAVNPMGTIPCIEDDGMVLYESMAINLYLARKYGGPLAPVDLKEDAAMLQWSFFAATEIETNSLKISSAIAEGLAESDAGKAVIDVAARLLKRPLRVLEQHLATHDYLVGDRFTVADLNVAEIVRYAQGHQPLFDAHPALKAWLARCQARTAFKSMWDSRTAEGHHHHHH	soluble
MSLTKEEMRNAILDIFQSNPQSVMNYKQVSHLMGVEAAPQKLMVNSLMEDMAVDDILHEIERGRYRYNALGLIVIGTFERRFNGRNSFIPEGGGTPIFIAERNSAHAMDGDKVKVQLFAKRRGRAPEAAVIEIIEQKQATFVGKIQINRDFAFLVTEDRTLANDIFIPKDNLGNAKNGDKVIVRILEWPEQSKNPIGEVQAVLGPAGDNDAEMNAILAEFGLPYVYPQEVEEAADRLDGKITEEELARREDFRSILTFTIDPKDAKDFDDAISFRPLEDDCYEVGVHIADVSHYVTEGGIIDQEAYNRATSIYLVDRTIPMLPERLCNDLCSLRPDEEKYAYSCIFRMNDEAKVLDYRICHSVIKSDRRFAYEEAQAVIETGEGDCKEAILKLNELAQRLRKERFQNGAIAFERKEVRFEIDEKGRPLGVIVKESKEANKLIEEFMLLANRTVARHIGEETQGKRAKTFVYRIHDLPDPDKLETLSDFIRRFGYKLRTTGSNVEVSKSINSLLDNIQNKPEENLISTVAIRSMAKAIYSTDNIGHYGLAFDFYTHFTSPIRRYPDLMVHRLLTKYLSGGSSVDKNDYEEKCKHSSAMEQLAASAERASIKYKQVEFMSEHLGKVFDGVISGVTEWGLYVELKENMCEGLIPIRCLDDDYYEYDDKNFCLIGRRYRHRYSLGDAITVRVAQANLDRKQLDFEPVSEGHHHHHH	soluble
MSLTKHVAVLLAHGFEEAEAVIFIDIMRRLDIRVDILSCEATTALSTYFETPISADALLSDRLDHHYDAVMMPGGPKGTDSLTANPQVIAFLRRHIAQDKYICALCSSGAKVLAAHHLLAGRTYSTGDKLADKFADGVYLDQDVVVDGKFITAKGLGVSFEFAFTVARHLLSDNLPKVEHQASHIYFKHGSAEGHHHHHH	soluble
MSLTLISLQTFAAAWEEKLYNPMPDAEDVVLPMPCDGAMVFRKVYIPLAGPLDDYPVNIGGDNAEYGYVEQTHPAFIAGSFTTEKNAKSRYYLLAKYEMTVLQYSALTQAECPAPSNKQRLPVVSLSWMQAMEAADKYNIWLRENAADKLPKEDGVAGFLRLPTEVEWEFAARGGLNVSTAEFRDLRYPMPEGVNAYEWFAGTQSANGQLQLSGLLKPNPLGLHDMLGNVDEMMFEPFRLNKLDRQHGQAGGYVVRGGDFRTAQGELRSSLRKERNYYDAKAAATSKTTGVRLALASSTLTSRERVSSIETSWKEGHHHHHH	not soluble
MSLTLSIPPSIQCQTEAACRLITRVTGDTLRAIHLYGSAVAGDLKPNSDIDLLVTICQPLTETQRATLMQELLALSSPPGASAEKRALEVTVVLYSQLVPWCFPPSREMQFGEWLREDIYQGIYEPAQQDWDMVLLITQILETSIPLKGERAERLFTPAPAAQLLKALRYPLDLWQSTADVQGDEYHIVLTLARIWYTLSTGRFTSKDAAADWLLPQLPEEYAATLRAAQREYLGLEQQDWHILLPAVVRFVDFAKAYIPTQFTEGHHHHHH	soluble
MSLTLTIEEIAKTKKLLVVSDFDGTIAGFSKDAYNVPINQKSLKAVKDLSQQADTDVVILSGRHLEGLKTVLDLGQYDITMVGSHGSEDSSRPRTLTPEEVARLAKIEADLEKIVDGIEGAFVEIKPFHRVLHFIRVSDKDKVQGILAQAAHVDSSGLKVTNGKSIIEYSISSTTKGTWLKEYVDRTEPTGVIFLGDDTTDEHGFKALENDDRALTVKVGEGDTAAKTRVDDVDNVGIFLEKLAYHRMQYAESVRLGEGHHHHHH	soluble
